For ten sequences, binding signal results are on record in patent US20130116129.

One series has as its system mouse IgG (Mus musculus). The series is described as follows: SELEX.
The test system of series [1] is rat IgG (Rattus norvegicus). The series is described as follows: SELEX. Particulars: uppercase RNA, lowercase DNA.

“CGAUAGGUGUUGAGGGCGAUCUCAGCGCUUGUUG [T1-GGCGAT]” yielded a binding signal in the series on mouse IgG (Mus musculus) (beads alone 155, p=0.037, 37 C) of 691 reads. On to “CGAUAGGUGUUGAGGGGUAUCUCAGCGCUUGUUG [T1-GGGTAT]”, for which the binding signal in the series with mouse IgG (Mus musculus) (beads alone 37, p=0.039, 37 C) turned out to be 787 reads.

“CGAUAGGUGUUGAGGUGGAUCUCAGCGCUUGUUG [T1-GTGGAT]” came in with a binding signal in the series on mouse IgG (Mus musculus) (beads alone 24, p=0.014, 37 C, library assigned to SEQ 2 from six-base random region) of 1560 reads. In the case of “CGAUAGGUGUUGAGGUGGGUCUCAGCGCUUGUUG [T1-GTGGGT]”, the binding signal with mouse IgG (Mus musculus) (beads alone 136, p=0.024, 37 C) amounted to 730 reads. Sequence “CGAUAGGUGUUGAGGUUGGUCUCAGCGCUUGUUG [T1-GTTGGT]” showed a binding signal with mouse IgG (Mus musculus) (beads alone 25, p=0.035, 37 C) of 605 reads.

“CGAUAGGUGUUGAGUGGGCUCUCAGCGCUUGUUG [T1-TGGGCT]” displayed a binding signal in the series on mouse IgG (Mus musculus) (beads alone 78, p=0.014, before selection 201, p=0.123, 37 C) of 605 reads. In turn, “CGAUAGGUGUUGAGUUCGAUCUCAGCGCUUGUUG [T1-TTCGAT]” showed a binding signal in the series on mouse IgG (Mus musculus) (beads alone 44, p=0.019, 37 C) of 548 reads. In turn, “CGAUAGGUGUUGAGUUGGUUCUCAGCGCUUGUUG [T1-TTGGTT]” had a binding signal in the series with mouse IgG (Mus musculus) (beads alone 23, p=0.048, 37 C) of 713 reads. For “CGCCTCTCCGAGAGTGTAGGGCAUACAUTCTUGGAGAGGUG [T3-AGGGCAT]”, the binding signal came to 18 reads in the series with mouse IgG (Mus musculus) (uppercase RNA, lowercase DNA, protein G beads 3) and 106 reads in series [1] (protein G beads 3). Turning to “CGCCTCTCCGAGAGTGTAUUAACCACAUTCTUGGAGAGGUG [T3-ATTAACC]”, the binding signal in the series with mouse IgG (Mus musculus) (uppercase RNA, lowercase DNA, protein G beads 78, 150 mM NaCl, 10 mM MgCl2) came out at 3120 reads; in series [1] (below protein G bead background of 78), 25 reads.
